In doi:10.1101/373563 (bioRxiv, 2018):

Columns and labels:
[1] = target: Facklamia ignava NrdB∆Grx (lacking the Grx domain) (Facklamia ignava); assay: GEMMA
[2] = target: the molecule itself; assay: SEC
[3] = target: the molecule itself; assay: GEMMA
[4] = target: the molecule itself; assay: SEC; remark: listed apart in the source

Molecule: Facklamia ignava NrdB∆Grx (lacking the Grx domain) (domain or fragment)
- stoichiometry N [1]: 4

B1: Facklamia ignava NrdB (Grx::ATP-cone::NrdB fusion protein), wild type (natural protein, UniProt K1LAT4 1-496, looked up)
chain: MTQVQVYSKKVCPWCTRLKDWMDKNNIDYEEIDIEVHPEAREYLHSLGLKTVPQVFIDGVHRPHEPLYSNLLHYIHGTSKIPQHVTKRNGDRVDFDPTKIEIAIQKANNETHELNDMEINTVTQKVVEKIDIDPIHVEEIQDLVETELMLQSFPRTAKAYILYRAEQTKARQRDIFKPRKNLKPYEYPELESYKEAIQHSYWLHTEYNYTSDIQDYKINVEPHERTAIRNAMLAISQVEVSVKTFWAKLYDRLPKPELANVGMTFAESEVRHSDAYSHLLELLGLNEIFEEIEQIPALNQRVDYLNSHIKYSQTGSNRDYTISILLFSAFIEHISLFSQFLIIMAFNKQKNLFSGISNVIEATSKEEQLHGEFGIDLINTIKAENPDWFDDELKEEIYTLVKQAYESEKDVLDWIYEDGEIDFMPTQTVLEFIKNRLNNSLEAIGLERIFETDLAEVEKTLWFDEEIVSTKHVDFFAKRSVNYTKRSQSMTADDLF
- stoichiometry N [2]: 4
- stoichiometry N [3]: 2

B2: Facklamia ignava NrdA (natural protein, UniProt K1MC37 1-567, looked up)
chain: MTAQLKNREYEPFYWLTEDSQTFLERGYLREGQDAHSRLREIADRAEEILGIDGFSDKFYTYLGRGYYSLSTPVWTNFGSNRGFPISCFGSTPDDNMASILYTAAEIGMMSKYGGGTSGFFGHLRPRGAAITNNGYSSGAVHFMKLFEQMTDTVSQGSSRRGRFAPYLPIDHPDIDEFLEIGVEGNDIQDLNHAVTVPDDWMREMIQGDREKRATWAKVIQRRVEMGYPYILFTDTINNNKPEWYHDYPITHSNLCSEIMLPDNDHWSFVCNLSSMNVLHYNEWKDTDAVETMIYFLDAVMSEFIEKLEKLRDSDQFEYREAFHFMERAYNFAVENRALGLGVLGWHSLLQSNLIAFESEEASYLNEEIHRTIQERAEKASCELAELFGEPLILKGTGRRNTTTMAIAPTTSSAFIIGQVSQSIEPLFSNYYVKDMSKIKTTIRNRYLVELLEEKGRNTPDVWESIKNHDGSVLHLDFLSDHEKNVFKTFAEINQYEIINQAAVRQRYIDQSQSLNIMINPATTTAKEMNQLYLYAWESGIKSLYYQHSTSAAQAFYRSSVCLACEA
- stoichiometry N [4]: 2
